Results taken from the DeepSol protein solubility set.

Test: soluble on expression in E. coli; label from the status in PepcDB or PDB records

Row | Sequence | soluble on expression in E. coli
1 | MSLNRYLAAPEIKANETLVIADRYAYFNIPSWKGAGVAVPVFSLKSEKSFGVGDFGDLKRMVDWAVSTNQKVVQILPINDTTMTHTWTDSYPYNSISIYAFHPMYADLKQMGNLKDKETAAAFNRKQKELNALSAIDYEAVNRVKWEYFHQIFKQEGEKVLASKAFRSFFEANKDWLQPYAAFSYLRDLYHTPNFREWPQYSEYNAQEIEELCRPDTADYAHIAIYFYIQFNLHLQLLEATTYAREHGVVLKGDIPIGISRNSVEAWTEPYYFNLNGQAGAPPDDFSINGQNWGFPTYNWDVMENDGYKWWMKRFQKMAEYFDAYRIDHILGFFRIWEIPMNAVHGLLGQFVPALPMSREEIESYGLSFREEFLRPYIHEYFLGQVFGPHTDYVKQTFIEPTETYEVYRMRPEFDTQRKVEAFFAGKNDEDSIWVRDGLYALISDVLFVPDRKDPNLYHPRIGVQHDFIYRALNDWEKTAFNRLYDQYYYHRHNDFWQQQAMKKLPQLTQSTRMLVCGEDLGMIPDCVAWVMNDLRILSLEIQRMPKNPAEEFGRLNEYPYRSVCTFSTHDMSTLRGWWEEDYQQTQRYYNQMLGHYGTAPAIATPELCEEIVRNHLYSNSILCILSLQDWLSMDGKWRNPNVQEERINIPANPRHYWRYRMHLTLEQLMKAESLNEKIRELVKQTGRNEGHHHHHH | soluble
2 | MAPMFGVSFDFDPDFSLLSNKTHKSRNPKPPVKLLPYRHGSNTTSSDSDSYTSDLDLPTMRLHHQWLRSPSRSKMCCSTGSSSISQSIHRA | not soluble
3 | MGSDKIHHHHHHMLGTLKKLRSRLDEADLVQYNLVVGDQELPLNPLIGQTLSLTHTGNIFCCNCGRKTKKSYSQGHCFPCMQKLASCDMCIMKPETCHFDQGTCREPQWAQSHCFVPHYVYLSNTSGIKVGITRNNQLPTRWIDQGATQGLAIFKVSTRQLSGLIEVELAKLVKDKTNWQAMLKSNAADIDLNAKAQELIPHIEHRLNELAMEKGEYKIERLTETIQQINYPMTAFPKKISSHNFDKVPEVTGVLLGIKGQYLIFDTGVINIRKFSAYEVTVTTN | not soluble
4 | MSLDFEYVTGEEGLKKAIKRLENSPYLYLDTETTGDRIRLVQIGDEENTYVIDLYEIQDIEPLRKLINERGIVGHNLKFDLKYLYRYGIFPSATFDTMIASYLLGYERHSLNHIVSNLLGYSMDKSYQTSDWGASVLSDAQLKYAANDVIVLRELFPKMRDMLNELDAERGEELLKTRTAKIFDLKSPVAIVEMAFVREVAKLEINGFPVDVEELTNKLKAVERETQKRIQEFYIKYRVDPLSPKQLASLLTKKFKLNLPKTPKGNVSTDDKALTSYQDVEPVKLVLEIRKLKKIADKLKELKEHLKNGRVYPEFKQIGAVTGRMSSAHPNIQNIHRDMRGIFKAEEGNTFVISDFSQIELRIAAEYVKDPLMLDAFKKGKDMHRYTASVVLGKKEEEITKEERQLAKAINFGLIYGISAKGLAEYAKLGYGVEISLEEAQVLRERFFKNFKAFKEWHDRVKKELKEKGEVKGHTLLGRRFSANTFNDAVNYPIQGTGADLLKLAVLLFDANLQKKGIDAKLVNLVHDEIVVECEKEKAEEVKEILEKSMKTAGKIILKEVPVEVESVINERWTKEGHHHHHH | soluble
5 | GPGSMAEEKIKIIVVGSVKSGKTTITNFLSGTRETATSKYYETNPLRIVETEIELDSMNFTDRRVVFSGGDAKTKRVLVQIWDLSGNSKHQAGWPAVANKADGIIFVFNPALKNGEKELSLWHKTFAVNQSELDALGNFAVRVPDKHCLVFAHHSTPPSNVAGEGLPSMPKGLEKIKVLETSLDYHSDNFKAAFDKLIESIVVARMEAEEDEVLQREGRMHF | soluble
6 | MIRLVAFDLDGTIGDTIPLCLAAFREATTPYVDHELSDDEIARTFGLNEEGMINQVVYGDSREKALNDFYVIYEEMHAILCPKPFEGMKTLIGQLHERNVIVVLITGKGIRSCDITLKQFGMDGCFDRIETGSSEKNRKSEAMKDILLYYGFKSNEMIYVGDAVSDIEACYFVKIQCLSAAWAASTDCEQLEKYNSGYVFSSVRLLRDFL | not soluble
7 | MSLAEQESLALFDDTTEELFMKGTMLSTIFYNAENLFSVVRILVKETNADWDEKDIIVTGFFPALHEQEVYTFYGKMQEHAKFGQQFKADRFRKEMPQSRAGLINYLSGELFKGIGKVTAENIVDTIGDDAITKILSDPSLLNTVPKLPSGAAESLLASLRENQGLEHVMVGLNEYGFGPQLSMKIFQAYKQNAIEVLENNPYKLIEDVKGIGFQRADELGRKLGLGGNHPERLRAGILFMLDSVCMQQGHVYMEQEVLLGEVTYLLEESEGIRIDQSILVAQVEKLAEEQKIITENTRVYMPSLYYSESGFAYHVKRMLKQTEYQEQFPQSEFLLALGELEERIGVHYGDSQRQALEQALMSPMLVLTGGPGTGKTTVIKGIVELYAELNGVSLDPHAYKDGATFPVLLAAPTGRAAKRMSESTGLPAMTIHRLLGMNGQEQMDDDAERLIDGRLLIVDEMSMVDIWLANQLFRALPAHMQVVLVGDQDQLPSVGPGQVLKDILQSEQIPTVALSDIYRQKDGSSIIEMAHYIKEGMLPADFTKNSADRSFFHCTVNQIGDVVEQVVKNAKNKGFRAKDIQVLAPMYRGPAGIDILNKKLQEIFNPNDTGRRKEVQFGDIKYRVHDKVLQLINQPEKNVFNGDIGEIVSIIYAKENTEKQDLIVVQFDQTEVSYYRQEFNQLTHAYCCSIHKAQGSEFPIVIMPIVRSYYRMLRRDLLYTGVTRSKQFLILCGEEEAFRMGIERIDENKRNTTLSERLMSEDVLLEQMTNKRILTAENITEIDPMIGMEGITPEQFMVGEGHHHHHH | soluble
8 | MERKISDEECPVRKSMQIFAGKWTLLIIFQINRRIIRYGELKRAIPGISEKMLIDELKFLCGKGLIKKKQYPEVPPRVEYSLTPLGEKVLPIIDEIAKFGMENL | soluble
9 | HFRRSLRHIFRRRSAGELPAAHTAAAPGTPGEAAETPARPGLAKKFLPWSLAREPPPEALKEAVLRYSLADEASMDSGARWQRGRLALRRAPGPDGPDRVLELFDPPKSSRPKLQAACSSIQEVRRCTRLEMPDNLYTFVLKVKDRTDIIFEVGDEQQLNSWMAELSECTGRGLESTEAEMHIPSALEPSTSSSPRGSTDSLNQGASPGGLLDPACQKTDHFLSCYPWFHGPISRVKAAQLVQLQGPDAHGVFLVRQSETRRGEYVLTFNFQGIAKHLRLSLTERGQCRVQHLHFPSVVDMLHHFQRSPIPLECGAACDVRLSSYVVVVSQPPGSCNTVLFPFSLPHWDSESLPHWGSELGLPHLSSSGCPRGLSPEGLPGRSSPPEQIFHLVPSPEELANSLQHLEHEPVNRARDSDYEMDSSSRSHLRAIDNQYTPL | soluble
10 | MEVAPSFSSVLKDCAVIEGQDFVLQCSVRGTPVPRITWLLNGQPIQYARSTCEAGVAELHIQDALPEDHGTYTCLAENALGQVSCSAWVTVH | soluble
11 | MHHHHHHSSGVDLGTENLYFQSMSAQNNAKVAVLGASGGIGQPLSLLLKNSPLVSRLTLYDIAHTPGVAADLSHIETKAAVKGYLGPEQLPDCLKGCDVVVIPAGVPRKPGMTRDDLFNTNATIVATLTAACAQHCPEAMICVIANPVNSTIPITAEVFKKHGVYNPNKIFGVTTLDIVRANTFVAELKGLDPARVNVPVIGGHAGKTIIPLISQCTPKVDFPQDQLTALTGRIQEAGTEVVKAKAGAGSATLSMAYAGARFVFSLVDAMNGKEGVVECSFVKSQETECTYFSTPLLLGKKGIEKNLGIGKVSSFEEKMISDAIPELKASIKKGEDFVKTLK | soluble
12 | MGSDKIHHHHHHLEISLNEIIDYYAKADVSFVGAFGERVSPQLKVLDRHTNPAGGGLVIPFSGSACFTFDGKPYVIEPGMVVHAGPGMRLSKEVIGDREWEYAVIHYHIPQHERDEYPLFHKDFSLAHGRSAKVPHLVRQILDIQSIPGAAAKFQTKVLFLSLLQEIFTAACGQPGQENSKLIEEAMGYIRLNYADELTVQKVADEFSVERRQFSYLFKRHTGMSPIHYLIECRISKAKELLGSPGCSVKQVAEWVGYTDSLYFSKAFKKYTGVSPSEYREGFAL | not soluble
13 | MPTVNVIGAGLAGSEAAWQIAQAGVDVNLYEMRPVKMTPAHHTSNFAELVCTNSLRANQITNAVGLLKEEMRQLHSIIIQSADATAVPAGGALAVDREPFSELVTQKLTSNSHIHVVNEELSAFPDGITVVATGPLTAPGLAQAIVDLNGEAGLSFFDAAAPILDANTINEDIVYKKSRYDRGEAAYLNCPMTKDEFLAFYQALVSAEVAEGHDFEKMTVFEGCMPIEVMAKRGIKTMLFGPLKPVGLEDPRTGKEPYAVVQLRQDNAAASLYNMVGFQTHLKWGEQKRVFRLIPGLENVQIVRYGVMHRNTFMKSPVVLEPTYASKRRPDLFFAGQMTGVEGYVESAASGLIAGINATRMALGETPVIFPETTAMGSMAHYITHTSAHHFQPMNANFGIMPALTVKIRNKKERNQQLADRALKDLATFQAGMNRVEQVLEHHHHHH | soluble
14 | MSDNDELQQIAHLRREYTKGGLRRRDLPADPLTLFERWLSQACEAKLADPTAMVVATVDEHGQPYQRIVLLKHYDEKGMVFYTNLGSRKAHQIENNPRVSLLFPWHTLERQVMVIGKAERLSTLEVMKYFHSRPRDSQIGAWVSKQSSRISARGILESKFLELKQKFQQGEVPLPSFWGGFRVSLEQIEFWQGGEHRLHDRFLYQRENDAWKIDRLAP | soluble
15 | SLSPRRLRLLLVDENPTARAVIGRRLSHRHYDVTVVEDGFAAQKTLIIQPSDIILIDMDLQLLPAIGTMEKIRAAHPAGHACIVMIGGASDTPKMIAALDAGADDHIVKPFDFDMLDARLRRVHARAEREG | not soluble
16 | MGSDKIHHHHHHMTHDTSPIHRTIELPDELLVGAIDTHIHSGPWLKSCPGRLDPFQIAEQAKQAGMRAVVFYDHTFGNSAGTSWMVRRSVPGIDVYGGIILTTNFGGMNPRAVKTALHYGDGAKFVHFGTHCTYHMASREGSYVDGKPVPFKDLYPKFAEQELARAIRIPLDGPVPGELEEILGLVAGHPDVYLNTGHISPGEVMRLAELAERFGIRKMIVAHPARAWLSTAQQKDLSARGFFLEGSVSDWLFHRGLPRTNYYVEREYADEIAGIANEPQFQGVVQWASQLREVGLANVVLGTDYGIGSCPAPREGMRLLISTLLDLQFSLAEIELLTRRNPARLLGLE | not soluble
17 | MGSDKIHHHHHHMSEQKEDLFKPVGEAAAEVEDESIAEQNKANDGVKLTGAQDAMGHPVQEIESLCMNCGKNGTTRLLLTSIPYFREIIIMSFDCPHCGFKNCEIQPASQIQEKGSRYVLKVECREDFNRQVIKSETATCKFVELDIEIPAKRGQLTTVEGLLSEMIDDLSQDQEMRKSIDEALYKKIDDFIQKVKSYINCEPNTIPITFILDDPAGNSWIEYKPGEPQHKWSHTQYVRTDEQNVQVGIITRDQLEQRRQEQLKQLANRERNPSESVKVGSANPQFLSDATDIENFNNEVQTFRASCPSCTQECETHMKPVNIPHFKEVIIMSTVCDHCGYKSNEVKTGGAIPDKGRRITLYCDDAADLSRDILKSETCSMVIPELHLDIQEGTLGGRFTTLEGLLRQVYEELESRIFTQTSDSMDEATKARWVEFFAKLKEAIAGKVKFTVIMEDPLAGSYIQNVYAPDPDPNMTIEDYERTKEQNEDLGLSDIKVE | not soluble
18 | MSQSNTLTVQILDKEYCINCPDDERANLESAARYLDGKMREIRSSGKVIGADRVAVMAALNITHDLLHRKERLDQESSSTRERVRELLDRVDRALANPADAGEA | soluble
19 | MSLEREVCVNQLLKFLDSIRGRLSFRMVERLFSRGLDENPIFEAISKSGALAKNVIIILGGRGCGKTLVMRYIKHYFEPEGWDYKYFSGDQFKEADAQELMKIISETRDLLENSEDYKVIVGIDDVVEASEAIRDTIKNQLVPLVVDYAGRIKLVISGQSERVVGTTTVLHILEDTLGRSPKAEMLFGEYPGEGHHHHHH | soluble
